Reference: the supplement of paper PMC9233669
Fewer inactive variants are shown than the library holds.

Key:
biotinyl-Phe-oxazolone = test: self-aminoacylation, catalytic enhancement (BFO) (fold over background); higher = more active; k-Seq, kA / k0A0; sequences stand for … in GGGAAUGGAUCCACAUCUACGAAUUC…UUCACUGCAGACUUGACGAAGCUG
Procedure, shortened: (§1)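 The uncatalyzed rate is the low-activity peak of a bimodal Gaussian fit, and catalytic enhancement is median kA divided by it. The kA values came from pseudo-first-order fits, with 1000 bootstraps, of per-sequence fraction reacted measured by streptavidin capture, triplicate qPCR and Illumina sequencing. Mutagenized RNA pools with a 21-nt variable region (0.43 μM) were reacted with each biotinyl-aminoacyl-oxazolone at 2–1250 μM in 50 μL HEPES/NaCl/KCl/MgCl2/CaCl2 buffer with 5% acetonitrile, pH 6.9–7.0, for 90 minutes at room temperature.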

biotinyl-Ile-oxazolone = test: self-aminoacylation, catalytic enhancement (BIO) (fold over background); higher = more active; k-Seq, kA / k0A0; sequences stand for … in GGGAAUGGAUCCACAUCUACGAAUUC…UUCACUGCAGACUUGACGAAGCUG
Procedure, shortened: as §1

biotinyl-Met-oxazolone = test: self-aminoacylation, catalytic enhancement (BMO) (fold over background); higher = more active; k-Seq, kA / k0A0; sequences stand for … in GGGAAUGGAUCCACAUCUACGAAUUC…UUCACUGCAGACUUGACGAAGCUG
Procedure, shortened: as §1

biotinyl-Val-oxazolone = test: self-aminoacylation, catalytic enhancement (BVO) (fold over background); higher = more active; k-Seq, kA / k0A0; sequences stand for … in GGGAAUGGAUCCACAUCUACGAAUUC…UUCACUGCAGACUUGACGAAGCUG
Procedure, shortened: as §1

biotinyl-Leu-oxazolone = test: self-aminoacylation, catalytic enhancement (BLO) (fold over background); higher = more active; k-Seq, kA / k0A0; sequences stand for … in GGGAAUGGAUCCACAUCUACGAAUUC…UUCACUGCAGACUUGACGAAGCUG
Procedure, shortened: as §1

biotinyl-Trp-oxazolone = test: self-aminoacylation, catalytic enhancement (BWO) (fold over background); higher = more active; k-Seq, kA / k0A0; sequences stand for … in GGGAAUGGAUCCACAUCUACGAAUUC…UUCACUGCAGACUUGACGAAGCUG
Procedure, shortened: as §1

Sequence	self-aminoacylation (biotinyl-Phe-oxazolone)	self-aminoacylation (biotinyl-Ile-oxazolone)	self-aminoacylation (biotinyl-Met-oxazolone)	self-aminoacylation (biotinyl-Val-oxazolone)	self-aminoacylation (biotinyl-Leu-oxazolone)	self-aminoacylation (biotinyl-Trp-oxazolone)
GUUCACAUAGGUCAUCGGGUG [Fam2.2 aminoacylation ribozyme variant]	51.1	4.89	6.87	4.64	8.18	8.49
GUUCACCUAGAUCAUCGGGUG [Fam2.2 aminoacylation ribozyme variant]	6.53	2.6	2.87	2.75	2.92	3.29
GUUCACCUAGGGCAUCGGGUG [Fam2.2 aminoacylation ribozyme variant]	23.4	3.29	3.44	3.42	3.57	4.28
GUUCACCUAGGUCAUCGGGGG [Fam2.2 aminoacylation ribozyme variant]	6.24	2.93	4.28	3.43	5.9	4.61
GUUCACCUAGGUCAUCUGGUG [Fam2.2 aminoacylation ribozyme variant]	8.36	1.71	2.62	1.71	2.56	2.12
GUUCACCUAGGUCGUCGGGUG [Fam2.2 aminoacylation ribozyme variant]	11	1.67	2.44	2.1	2.04	2.08
GUUCACGUAGGUCAUCGGGUG [Fam2.2 aminoacylation ribozyme variant]	30.3	3.06	4.57	4.2	4.45	5.39
GUUCACUUAGGUCAUCGGGUG [Fam2.2 aminoacylation ribozyme variant]	27.9	3.48	4.97	3.12	6.01	5.21
GUUCUCCUAGGUCAUCGGGUG [Fam2.2 aminoacylation ribozyme variant]	55.1	6.21	9.55	6.51	13.7	9.42
UAGAUUGCUAAUAGUCGCAAG [Fam3.1 aminoacylation ribozyme variant]	1.77	1.19	1.19	1.19	1.16	1.13
UAGUGUGCUAAUAGUCGCAAG [Fam3.1 aminoacylation ribozyme variant]	2.94	1.83	1.88	1.76	1.21	2.19
UAGUUCGCUAAUAGUCGCAAG [Fam3.1 aminoacylation ribozyme variant]	6.84	1.81	1.55	1.86	1.81	1.88
UAGUUUGCUAAUAGUCGAAAG [Fam3.1 aminoacylation ribozyme variant]	6.07	1.33	1.09	1.15	1	3.49
UAGUUUGCUAAUAGUCGCAAC [Fam3.1 aminoacylation ribozyme variant]	1.43	1.25	1.18	1.31	1.06	1.34
UAGUUUGCUAAUAGUCGCAAU [Fam3.1 aminoacylation ribozyme variant]	3.04	1.52	1.38	1.61	1.28	1.88
UAGUUUGCUAAUGGUCGCAAG [Fam3.1 aminoacylation ribozyme variant]	1.19	1.11	1.17	1.1	0.81	1.22
UAGUUUGCUAAUUGUCGCAAG [Fam3.1 aminoacylation ribozyme variant]	1.62	1.25	1.29	1.17	1.39	1.51
UAUCACCUAGGUCAUCGGGUG [Fam2.2 aminoacylation ribozyme variant]	15.1	3.72	4.75	3.88	4.88	5.87
UCACACUUAAAGCAAUCGGUC [Fam1B.1 aminoacylation ribozyme variant]	0.642	0.86	0.737	0.844	0.761	0.575
UCACACUUCAAGCAAUAGGUC [Fam1B.1 aminoacylation ribozyme variant]	0.918	0.671	0.434	0.668	0.495	0.559
UCACACUUCAAGCAAUCGGUC [Fam1B.1 aminoacylation ribozyme variant]	49.8	0.996	0.998	1.2	1.43	22
UCACACUUCAAGCAAUCGGUU [Fam1B.1 aminoacylation ribozyme variant]	8.21	1.3	1.48	1.58	1.6	6.74
UUACUUCAAACAAUAGGUCUG [Fam1A.1 aminoacylation ribozyme variant]	1.69	1.2	1.26	1.25	1.08	1.07
UUACUUCAAACAAUCGUUCUG [Fam1A.1 aminoacylation ribozyme variant]	2.05	0.996	1	0.975	0.983	1.05
UUACUUCAAACUAUCGGUCUG [Fam1A.1 aminoacylation ribozyme variant]	1.25	1.25	0.916	1.08	1.04	1.26
